Measurements as given in patent US20220153838A1.

Biological target: CD19 (UniProt P15391)
Assay: cell-based or functional assay

UniProt P15391, sequence (P15391 20-556 limits assumed): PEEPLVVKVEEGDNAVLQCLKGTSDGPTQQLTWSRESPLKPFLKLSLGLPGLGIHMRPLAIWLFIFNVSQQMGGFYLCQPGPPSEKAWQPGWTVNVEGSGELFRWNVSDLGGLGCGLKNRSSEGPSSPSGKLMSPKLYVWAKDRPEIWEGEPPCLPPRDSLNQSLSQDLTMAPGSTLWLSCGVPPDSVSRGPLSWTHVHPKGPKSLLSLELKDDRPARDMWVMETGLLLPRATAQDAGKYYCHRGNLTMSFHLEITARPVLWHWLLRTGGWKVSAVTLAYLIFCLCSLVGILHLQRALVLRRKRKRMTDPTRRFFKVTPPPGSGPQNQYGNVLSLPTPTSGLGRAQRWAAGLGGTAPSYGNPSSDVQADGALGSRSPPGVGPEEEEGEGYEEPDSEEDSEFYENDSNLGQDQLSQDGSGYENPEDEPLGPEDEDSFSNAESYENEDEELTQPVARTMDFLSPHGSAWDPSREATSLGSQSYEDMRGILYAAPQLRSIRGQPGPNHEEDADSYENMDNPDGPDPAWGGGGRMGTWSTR
FMC63-CD8BBZ CAR, sequence (Q07011 209-255): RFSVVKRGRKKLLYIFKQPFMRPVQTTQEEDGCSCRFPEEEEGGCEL

IFNγ ELISA, CAR T-cells cultured overnight with CD19-K562 cells: 44300 pg/mL IFNγ
IFNγ ELISA, CAR T-cells cultured overnight with primary CLL cells (CD19-Positive Targets): 13900 pg/mL IFNγ
Substance: FMC63-CD8BBZ CAR
